Source: paper PMC4117571

Test system: hnRNP A1 (endogenous) ((SF268 cells))
Assay: pull-down, competition, immunoblot
Conditions: biotin-16-UTP incorporated; 5 mM HEPES pH 7.1, 40 mM KCl, 0.1 mM EDTA, 2 mM MgCl2, 2 mM DTT, RNasin, 0.25 mg/ml heparin; 200 ug SF268 extract, 3 ug RNA, 100 ul; 15 min 30 C, then beads …

EV71 5'UTR
binding signal (% reduction of bound hnRNP A1): 73

EV71 SL-II
binding signal (% reduction of bound hnRNP A1): 80
